Substrate: Oc1cc(O)c2c(c1)O[C@H](c1ccc(O)c(O)c1)[C@@H](O)C2
Assay: purified protein
Conditions: 100 mM acetate buffer pH 5.0, 28 °C, 5-300 μM substrate

B1: SmLAC1 (recombinant MBP-SmLAC1) (Salvia miltiorrhiza) (protein)
chain: MERSLMFSAWVLALLVCLSSFASAAIVEHTFHVKNLTVNKLCRNQVITAVNGSLPGPTLRVHEGDTLVVHVFNKSPYNLTIHWHGIFQILSGWADGPEFATQCPIRPGQSYTYRFNITGQEGTLWWHAHVGWLRATVYGALVIRPRSGHSFPFPKPHREIPIVLGEWWNANVIDVENQALATGAAPNLSDAYTINGHPGNLYPCSSNDTFRLTVVHGKTYLLRIINAALNNQLFFKIANHNLTVVAVDASYTNPYTTDVVLVAPGQTTDVLLTADQTPARYYMAASAYQSAAGVPFDNTTTTGIVAYSGTTPSAPIMPLLPAFNDTPTAHRFFSNLTALVSSRFWAPVPRHVDERMFVTIGLGLSACDLPQCQGPFGLKLAASMNNASFQFPTRLSMLEAFFRGVGGIYTADFPDNPPVRFDYTNSSNSLNQALLNTTKSTKVKKVRFNSTVEVVLQNTAFLGVENHPIHLHGFNFYVLAQGFGNYNPALDTRKFNFVNPQERNTIGVPVGGWAVIRFRANNPGVWLIHCHLDVHLPWGLATAFVVENGPTPATTLPPPPADFPKC
Km: 21.2 µM

— PMC11811200
